Read-outs that look alike come from different tables or passages of the source.
Key:
[1] = target: T1, PD-L1 on cells (NCI-H441 cells; aAPC PD-L1/CHO-K1 cells, Promega) (human, UniProt Q9NZQ7 19-290); assay: flow cytometry, % positive cells, aAPC PD-L1/CHO-K1 cells (overexpressing PD-L1)
T1 construct: whole, on cells; also called human PD-L1-expressing CHO-K1 cells; H441 cells endogenously expressing PD-L1
Description: Lung cancer cell line (NCI-H441 (ATCC), CHO-K1 recombinant cell line overexpressing PD-L1 aAPC/CHO-K1 (Promega J1252)) and a negative cell line (CHO-K1, ATCC) were used to assess AFFIMER® agent binding capacity to PD-L1 by flow cytometry.
Briefly, 50 000 cells were added to each well of a 96-well microplate. After this step and each subsequent step, cells were washed twice with PBS+2 mM EDTA using 350g centrifugation for 3 minutes at 4° C. All steps were performed at 4° C. using assay buffer comprising 5% FBS, 2 mM EDTA and 0.05% sodium azide in PBS unless otherwise stated. Independent AFFIMER® agent dilutions were prepared in duplicate and added to the plates. […] Fixation was performed for 10 minutes at 4° C. with Fixation Buffer (Bio-techne FC004). Cells were resuspended in 100 ul assay buffer prior the acquisition of the data. 5000 events were collected by Flow cytometry (Millipore Guava 12HT). The results were gated on live cells and singlets (SSC-H vs SSC-A). The percentage of cells expressing PD-L1 bound by the AFFIMER® agent (positive cells) was determined by using as negative control (background) where the wells were stained with the AF488 conjugated secondary antibody only without AFFIMER® agent. The average of the duplicate wells was used to calculate EC₅₀ using a four-parameter non-linear regression curve fit using Graphpad Prism software. […]

[2] = target: T2, human PD-L1-Fc (R&D Systems) (human, UniProt Q9NZQ7 19-239); assay: human PD-L1-Fc/HSA bridging ELISA: huPD-L1-Fc coated, AFFIMER titrated with 10 µM HSA, detection with HRP-conjugated anti-HSA antibody (the signal needs PD-L1 and HSA bound at once)
T2 construct: Bought reagent; also called huPD-L1-Fc; huPD-L1; not shown: Fc part of the bought fusion
Description: After saturation with 5% casein/PBS buffer, the plates were washed and a dilution of AFFIMER® polypeptides or controls was incubated with HSA at a final concentration of 10 μM for 90 minutes. Plates were then washed, and a […] polyclonal antibody, anti-HSA (HRP-conjugated) (Abcam), was added for 90 minutes. After a last washing step, TMB was added for the development of the experiment and the plates were read at 450 nm. The EC₅₀ was then calculated using the interpolated non-linear four-parameters standard curve (FIG. 10).

[3] = target: T3, human serum albumin (HSA) (human, UniProt P02768 25-609); assay: SPR (Biacore): immobilized ligand HSA (Sigma # A3782), AFFIMER as analyte, pH 7.0 by the legend
T3 construct: The assays used bought HSA (Sigma #A37812 in the SPR work); also called HuSA
Description: (§1) For the HSA binding kinetic analysis, HSA (Sigma #A37812) was immobilized on a CM5 chip surface using amine coupling in 10 mM sodium acetate (pH 5.0) (Cytvia). […] The chip surface was regenerated with 3 mM NaOH for 20 seconds at a flow rate of 20 μl/min. The kinetic data was blank subtracted and fit to a 1:1 Langmuir binding model (BIAcore evaluation software; Cytiva).

[4] = target: T2, human PD-L1-Fc (R&D Systems); assay: SPR (Biacore) kinetics: human PD-L1-Fc immobilised on a CM5 chip, AFFIMER as analyte
[5] = target: T2, human PD-L1-Fc (R&D Systems); assay: as above; remark: listed apart in the source
[6] = target: T1, PD-L1 on cells (NCI-H441 cells; aAPC …); assay: cell-based or functional assay
[7] = target: T3, human serum albumin (HSA); assay: SPR, Biacore, HSA amine-coupled on CM5; E. coli-produced format
Description: as §1

[8] = target: T3, human serum albumin (HSA); assay: SPR (Biacore 8K): HSA amine-coupled on a CM5 chip, AFFIMER as analyte, pH 6.0, 1:1 Langmuir fit
Description: as §1

[9] = target: T3, human serum albumin (HSA); assay: HSA binding ELISA: HSA coated, anti-cystatin A detection
[10] = target: T2, human PD-L1-Fc (R&D Systems); assay: human PD-L1-Fc binding ELISA: huPD-L1-Fc coated, anti-cystatin A detection

T3 sequence (P02768 25-609): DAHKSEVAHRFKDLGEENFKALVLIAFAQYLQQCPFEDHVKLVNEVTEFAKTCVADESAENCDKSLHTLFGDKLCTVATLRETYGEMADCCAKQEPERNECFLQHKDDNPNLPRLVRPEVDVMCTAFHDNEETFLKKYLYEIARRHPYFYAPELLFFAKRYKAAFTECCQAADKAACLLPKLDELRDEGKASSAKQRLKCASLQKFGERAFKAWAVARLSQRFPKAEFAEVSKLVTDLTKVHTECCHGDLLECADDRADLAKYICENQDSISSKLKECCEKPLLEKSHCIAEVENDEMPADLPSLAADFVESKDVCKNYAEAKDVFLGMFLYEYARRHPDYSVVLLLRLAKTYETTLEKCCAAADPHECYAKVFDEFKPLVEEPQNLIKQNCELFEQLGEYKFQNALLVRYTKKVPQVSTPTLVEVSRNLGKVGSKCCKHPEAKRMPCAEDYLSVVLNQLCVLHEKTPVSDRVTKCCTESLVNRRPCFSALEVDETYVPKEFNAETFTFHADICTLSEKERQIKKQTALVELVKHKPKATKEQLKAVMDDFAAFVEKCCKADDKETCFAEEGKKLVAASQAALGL
T2 sequence (Q9NZQ7 19-239 limits assumed): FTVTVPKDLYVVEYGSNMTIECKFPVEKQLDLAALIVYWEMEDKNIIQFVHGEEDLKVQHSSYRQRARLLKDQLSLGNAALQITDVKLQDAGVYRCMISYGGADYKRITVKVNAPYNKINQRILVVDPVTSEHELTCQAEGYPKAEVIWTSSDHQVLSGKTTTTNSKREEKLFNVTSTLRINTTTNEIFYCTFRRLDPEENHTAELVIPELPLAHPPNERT
T1 sequence (Q9NZQ7 19-290): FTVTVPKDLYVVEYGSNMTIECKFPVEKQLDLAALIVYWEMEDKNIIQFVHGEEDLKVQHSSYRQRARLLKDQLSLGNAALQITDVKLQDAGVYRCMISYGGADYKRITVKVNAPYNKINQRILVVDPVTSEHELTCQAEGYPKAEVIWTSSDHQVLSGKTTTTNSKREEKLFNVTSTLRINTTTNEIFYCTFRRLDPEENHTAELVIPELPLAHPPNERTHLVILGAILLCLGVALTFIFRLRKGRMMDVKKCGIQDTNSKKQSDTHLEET

EC50 [1]: 0.036 nM | EC50 [2]: 0.57 nM | Kd [3]: 9.09 nM | koff [3]: 0.00359 s⁻¹ | kon [3]: 395000 M⁻¹ s⁻¹ | Kd [4]: 0.0686 nM | koff [4]: 6.07e-05 s⁻¹ | kon [4]: 884000 M⁻¹ s⁻¹ | Kd [5]: 0.0796 nM | koff [5]: 0.000123 s⁻¹ | kon [5]: 1.55e+06 M⁻¹ s⁻¹ | IC50 of PD-1/PD-L1 blockade (% of inhibition, Promega NFAT-luciferase reporter cells) [6]: 131 nM | Kd [7]: 9 nM | Kd [8]: 4.44 nM | koff [8]: 0.00302 s⁻¹ | kon [8]: 681000 M⁻¹ s⁻¹ | EC50 [9]: 1.03 nM | EC50 [10]: 0.01 nM
B1: Clone 80 XT35 (anti-PD-L1 type III AFFIMER® XT in-line fusion dimer XT) (designed binder)
chain: MIPGGLSEAKPATPEIQEIVDKVKPQLEEKTGETYGKLEAVQYKTQVVRRKHFPQWPGTNYYIKVRAGDNKYMHLKVFKSLDLQPREVFQEDLVLTGYQVDKNKDDELTGFAEAAAKEAAAKEAAAKEAAAKEAAAKEAAAKMIPGGLSEAKPATPEIQEIVDKVKPQLEEKTGETYGKLEAVQYKTQVVRRKHFPQWPGTNYYIKVRAGDNKYMHLKVFKSLDLQPREVFQEDLVLTGYQVDKNKDDELTGFAEAAAKEAAAKEAAAKEAAAKEAAAKEAAAKMIPRGLSEAKPATPEIQEIVDKVKPQLEEKTNETYGKLEAVQYKTQVLANFFQRRWPGSTNYYIKVRAGDNKYMHLKVFNGPWKFRNTDRGADRVLTGYQVDKNKDDELTGFHHHHHH
notes: Made in E. coli; Two Clone 80 units are fused to one HSA-41; also called XT35_1; ILF trimer format

— patent publication US20240409638A1 (AVACTA LIFE SCIENCES, published 2024)
